Assay: soluble on expression in E. coli; label from the status in PepcDB or PDB records

| Sequence | soluble on expression in E. coli |
| --- | --- |
| MGSSHHHHHHSSGRENLYFQGPSNSDAAHAFWSTQPVPQTEDEDEKIVFAGPMDEPKTVADIPEEPYPIASTFEWWTPNMEAADDIHAIYELLRDNYVEDDDSMFRFNYSEEFLQWALCPPNYIPDWHVAVRRKADKKLLAFIAGVPVTLRMGTPKYMKVKAQEKGEGEEAAKYDEPRHICEINFLCVHKQLREKRLAPILIKEATRRVNRTNVWQAVYTAGVLLPTPYASGQYFHRSLNPEKLVEIRFSGIPAQYQKFQNPMAMLKRNYQLPSAPKNSGLREMKPSDVPQVRRILMNYLDSFDVGPVFSDAEISHYLLPRDGVVFTYVVENDKKVTDFFSFYRIPSTVIGNSNYNLLNAAYVHYYAATSIPLHQLILDLLIVAHSRGFDVCNMVEILDNRSFVEQLKFGAGDGHLRYYFYNWAYPKIKPSQVALVML | soluble |
| MEDYANISKGKEKFFPHCFYGRCCARRMLCDANVFPYALPVEANSLKEQAPCLKDEECDLFPDFLGTCVHHQNVTNILENRRFKYFPTNNNVKPKGYGMCCYSKKSSICSTGGTPFEVELSDGPCSNHIDCNPDELPFKWNAYCSQNAKSNMCCRDTLVDSLCPDGFTPYRTQQKCEGYHPLSKSSGKCPKSNGMCHRGHCCPRLTIDEARKATPYHLNYVTDTQCDPTEPLDFVYRWAFCDEIEEKIVVMGDRNADGTELNWQQSRCTINR | not soluble |
| MELNWALFYGLCPSIKMAHVFDKDEIMGLFESFRKARAKTKAEIKAAKVKARQEVKDATKLEIKRNKLLAQQEKALLKEERKGLKAKRKHEEKLAKTTLEQLKAGKFNKDNVLRYAGAARTLAPIVLPLIYRGITLAKEQANTKRALRLGIDPSDLARFAGHGAELKARIEGIRGSVKVSSLPKGFVADVEQRLDDLTFAVDNAEYMTPELRQRSHRSIANDLDQLARQIQDKIGE | not soluble |
| MGSDKIHHHHHHMVLVVAGFDPSGGAGIIQDVKVLSALGVKTHAVISALTVQNENRVFSVNFRDWEEMRKEIEVLTPPRVIKVGLSAPETVKRLREMFPDSAIVWNVVLESSSGFGFQDPEEVKKFVEYADYVILNSEEAKKLGEYNNFIVTGGHEKGNTVKVKYRDFVFEIPRVPGEFHGTGCAFSSAVSGFLAMSYPVEEAIRSAMELLKKILERSSGVVETEKLLRDWYRYDTLNTLDEILPEFLEIGHLTVPEVGQNVSYALPWAKNEFEVGKFPGRIRLKEGKAVAVSCASFKDRSHTARMAVTMMRYHPHMRCVVNVRYEREYVERAKKRGLKVFHYDRSKEPKEVQEKEGQSMVWMIEQAIAELKSPPDVIYDEGWWGKEAMIRVFGRNPKEVLEKIKLMVRE | not soluble |
| MSLARLKVKVWGEYACFSRPEFKVERVSYPVPTPSAARGLLEAIFWKPEFRYEVRRIGVLRLGTPFALLRNEVGNRMGAKPFFVEDARQQRTSLVLKDVAYLVEADMVLRPHATDPLPKYLEQFERRLKKGQYHHTPYLGTREFPAYFSPPDGEVPDGGLNLDLGPMLFDLAFVEDPGRPELTFKRPGRGEVQGYALPLFFHARIREGWLEVPAEKYQELYRLEEGHAKGAEGHHHHHH | soluble |
| MVEADHPGKLFIGGLNRETNEKMLKAVFGKHGPISEVLLIKDRTSKSRGFAFITFENPADAKNAAKDMNGTSLHGKAIKVEQAKKPSFQSGGRRRPPASSRNRSPSGSLRSARGSSGGTRGWLPSHEGHLDDGGYTPDLKMSYSRGLIPVKRGPSSRSGGPPPKKSAPSAVARSNSWMGSQGPMSQRRENYGVPPRRATISSWRNDRMSTRHDGYATNDGNHPSCQETRDYAPPSRGYAYRDNGHSNRDEHSSRGYRNHRSSRETRDYAPPSRGHAYRDYGHSRRDESYSRGYRNHRSSRETREYAPPSRGHGYRDYGHSRRHESYSRGYRNHPSSRETRDYAPPHRDYAYRDYGHSSWDEHSSRGYSYHDGYGEALGRDHSEHLSGSSYRDALQRYGTSHGAPPARGPRMSYGGSTCHAYSNTRDRYGRSWESYSSCGDFHYCDREHVCRKDQRNPPSLGRVLPDPREAYGSSSYVASIVDGGESRSEKGDSSRY | soluble |
| MAHHHHHHMRLTPLRCSAAAFHFTSLLLQGSGGGYRFFEDMYPKHDPAPRYRYYEDQMQSPTVRSLEPKKQMTETEKLHHLHDWKKDKEGLTPPPEFGWPEEWGPEPGEEGHSEWYRKNRMYMSYEEKSRYDLRVGVPVEKNSMRHQEMPYQKRMKAAYVNLEEKNPQYFDPRQRKYWAEYSYEDQRDTMAKARDDYIKEWLDEPGVTKENVAKKIGDYNGTAKNQNVKSVQRRPEWELAPRPEYDDD | not soluble |
| MGSDKIHHHHHHMIFKKMINEFKMEIKNNKSKINPIDVYRYSIFFRNYIESTAEDALKNGINLSLLEKSCLKESSKSLLGLKVQLKEALLEAMISYRFNGAGYILVKPKSEDEDLSKKVNSELPTGFKYLDFQKIINKRDSSYVEYLSNSKDPDDFERARVVKIDKSRVIIYENYDYVLGEQEPAYTQSLLLNICLLEQIYLEIEKRIRNYNFLFYKDEHLVGLVESLEIAKEEINVLANSKGKIFSTFFKAQEPNKSFQALSSVSDELSRELSKIKNTLNNDGIFYTASENARLEVIKYDLEFLKDAFELVKAKIGADTKEPLTRSFNEQVKGLGSSGKGDKSNYYDYLKGVQESVANACNLKLNKYYRLNMKFNELEALSYEQRLQKDNLLLDVYFKYLELIKNENLSDKAKENLKEQLSLVI | not soluble |
| MIKVALPKGRLFEETVDLLLKRGIIEKRIEEGRKLILEEGGITFFLVKPSDVPVYVESGVSDLGVCGYDVYLEKKPSVYRLMDLGIGFCRIAVAGKPESEEKYFSSTHISVATKYPNIAYEFFKKKGVKADIYYLNGSVELAPLVGLSDFILDLVQTGRTLKENGLIVIEEVGKSTAWLIANKDSFRIKNGQIMEFLSRLVQHNKDGLQVQGSSLEHHHHHH | not soluble |
| MSLATVPTRSGSPRQLTTKQTGDAWEAQARRWLEGKGLRFIAANVNERGGEIDLIMREGRTTVFIEVRYRRSALYGGAAASVTRSKQHKLLQTARLWLARHNGSFDTVDCRFDVVAFTGNEVEWIKDAFNDHSEGHHHHHH | soluble |
| MIVEPMTKPRKPTVQRCQSFFTNGANHFYCKKSTHDGGRTHNLLIRSQTRCHYATRATVCWKFSIINKYIPTLANITITTLRKLYKRFIDRESLFLIFFRKDEHIVQNIIN | soluble |
| MGSDKIHHHHHHDTDKGLARRLPPPVPKDQKNDTDVDIKKRNLLVVLINSNNQILCGDQFVDIKQLKERIKEFIDNPYNDEHKPERVEADVPFFGKMMVTKNHVISLQNDRGTEYQAYIDVQNEIAAAYNELRNKVSKEKFGKNFADLDEEQQKAVQQIYPQKISEAEPKNYGGKK | not soluble |
| MGIMADRLASMVVKATSPDGQIEGELRDRDAVSVAFRGDTYRHYTEYSLGTQLSRLALRMWTGYQRGYDEAVAEATGRPVSRSQETWDANRRRFRQEQAATTVTGMSTDGWIYIQNTGMTSWHVVIRQGTLSKLDEDQFVAELMDAYNTMITEYRFATADLRAKHYGVSFQPRNPPVKELRA | not soluble |
| PSPQSLDGKNLNFDQQLVIFESENCEFCAQFDRDILAHWQADIPMVATKNTNPPADWTLDKPLFAAPTIVLFREGKEVVRYTGYTGEKENFWQWL | not soluble |
| MSLSHLLELYINFKGEAKEAIAFYEDVFDTKCQNLMTFGEAPEDPEHPINDEIKDLVMNASIIIEGTYVMISDVPDMFGFEVTEGNNLSLVVSTDDDEKIDRLFKRLSEGGTVTMPFLKLFGPKSMVPEGGSHHHHHH | soluble |
| MGSDKIHHHHHHMANVNKTPGKTRRAEVAGGGFAGLTAAIALKQNGWDVRLHEKSSELRAFGAGIYLWHNGLRVLEGLGALDDVLQGSHTPPTYETWMHNKSVSKETFNGLPWRIMTRSHLHDALVNRARALGVDISVNSEAVAADPVGRLTLQTGEVLEADLIVGADGVGSKVRDSIGFKQDRWVSKDGLIRLIVPRMKKELGHGEWDNTIDMWNFWPRVQRILYSPCNENELYLGLMAPAADPRGSSVPIDLEVWVEMFPFLEPCLIEAAKLKTARYDKYETTKLDSWTRGKVALVGDAAHAMCPALAQGAGCAMVNAFSLSQDLEEGSSVEDALVAWETRIRPITDRCQALSGDYAANRSLSKGNMFTPAALEAARYDPLRRVYSWPQ | not soluble |
| MGSSHHHHHHSSGRENLYFQGMTTAKRDTYTPETLLSVAVQVFIERGYDGTSMEHLSKAAGISKSSIYHHVTGKEELLRRAVSRALDELFGILDEEHARVGTAAERLEYVVRRMVEVLMAELPYVTLLLRVRGNTGTERWALERRREFDHRVAALLKDAAAEGDVRADVEVRLATRLVFGMINSIVEWYRPEGPDGRSDASGASGVSGAGEREVVDAVARLVFGGLRKAS | soluble |

From the DeepSol protein solubility set
